The record followed here is paper PMC5700373, “Repression of YdaS Toxin Is Mediated by Transcriptional Repressor RacR in the Cryptic rac Prophage of Escherichia coli K-12”.

Data set [1] deals with T1, RacR (Escherichia coli K-12) (UniProt P76062).
T1 sequence: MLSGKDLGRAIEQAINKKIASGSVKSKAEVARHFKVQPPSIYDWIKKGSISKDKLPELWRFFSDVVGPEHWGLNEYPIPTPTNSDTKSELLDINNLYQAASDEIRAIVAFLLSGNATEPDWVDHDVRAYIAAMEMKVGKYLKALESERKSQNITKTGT
Kind of data set: EMSA. Conditions: EMSA: 10x buffer 100 mM Tris pH 8, 10 mM EDTA, 1 M NaCl, 1 mM DTT, 50% glycerol, 0.1 mg/ml BSA (presumably 1x final), room temperature 1 h, SYBR green stain. ….

Another data set addresses T2, RacR (Escherichia coli K-12, UniProt P76062 1-158).
T2 sequence: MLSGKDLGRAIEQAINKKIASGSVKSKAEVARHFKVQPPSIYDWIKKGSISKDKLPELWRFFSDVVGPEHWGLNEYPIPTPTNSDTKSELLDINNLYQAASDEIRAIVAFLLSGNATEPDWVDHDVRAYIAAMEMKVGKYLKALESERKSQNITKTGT
Kind of data set: EMSA; 23.5 nM DNA, RacR up to 67.5 nM; single complex; EMSA: 10x buffer 100 mM Tris pH 8, 10 mM EDTA, 1 M NaCl, 1 mM DTT, 50% glycerol, 0.1 mg/ml BSA (presumably 1x final), room temperature 1 h, SYBR green stain. TSA: 50 mM Tris pH 8.5, 500 mM NaCl, 5% glycerol, 20-95 C. Conditions: protein: recombinant; tags: C-terminal His (pET28a); chain copies: 2; blunt. For orientation: Mobility shift assays separate free from complexed probe on a gel.

For “TGCTTAATATTCTCCTATGCGCATTACATTAGGCAATCCCTACCCTTACTGCATTAGGCACAGCCTATTGACAATTGCGTTAGGCGTCGCCTAATATTTCTGTGTGTTTTTGGAGTTCATTCG (double strand) [123-bp racR-ydaS IGR]”, in data set [1], the binding result was “binds”.

B1: 49-bp region upstream of ydaS (dsDNA)
DNA 1: CGAATGAACTCCAAAAACACACAGAAATATTAGGCGACGCCTAACGCAA
DNA 2: TTGCGTTAGGCGTCGCCTAATATTTCTGTGTGTTTTTGGAGTTCATTCG
B1: in the data set with RacR, the binding result was “binds”.
